According to patent publication US20200405854A1, “Combination Therapies Comprising Daratumumab, Bortezomib, Thalidomide and Dexamethasone and Their Uses” (Janssen Biotech, Inc., priority 2019, published 2020):
Like-named read-outs stand apart in the source and are kept apart here.

What was measured:
[1] = target: T1, CD38 on red blood cells (RBCs) (Homo sapiens, UniProt P28907); test: Indirect Antiglobulin Test (Indirect Coombs test) interference
T1 construct: endogenous in cells; host or cells: red blood cells (reagent RBCs / donor RBCs in blood-bank testing)
Source text: Daratumumab binds to CD38 on red blood cells (RBCs) and results in a positive Indirect Antiglobulin Test (Indirect Coombs test). Daratumumab-mediated positive indirect antiglobulin test may persist for up to 6 months after the last daratumumab infusion. Daratumumab bound to RBCs masks detection of antibodies to minor antigens in the patient's serum [see References (15)]. The determination of a patient's ABO and Rh blood type are not impacted [see Drug Interactions (7.1)].
Daratumumab binds to CD38 on RBCs and interferes with compatibility testing, including antibody screening and cross matching. Daratumumab interference mitigation methods include treating reagent RBCs with dithiothreitol (DTT) to disrupt daratumumab binding [see References (15)] or genotyping. Since the Kell blood group system is also sensitive to DTT treatment, K-negative units should be supplied after ruling out or identifying alloantibodies using DTT-treated RBCs.

[2] = tested on: patients with relapsed or refractory multiple myeloma; test: Study GEN501 open-label dose escalation monotherapy trial, efficacy; type: in vivo, human
Source text: (§1) Treatment continued until unacceptable toxicity or disease progression.
Seventy-four percent of patients had received prior ASCT. Prior therapies included bortezomib (100%), lenalidomide (95%), pomalidomide (36%) and carfilzomib (19%).

[3] = Clinical pharmacokinetics; type: in vivo, human
[4] = tested on: adult patients with relapsed and refractory multiple myeloma; test: Monotherapy safety, three open-label clinical trials; type: in vivo, human
Source text: Serious adverse reactions were reported in 51 (33%) patients.

[5] = tested on: patients with multiple myeloma; test: Immunogenicity, anti-daratumumab antibodies; type: in vivo, human
Source text: As with all therapeutic proteins, there is the potential for immunogenicity. The detection of antibody formation is highly dependent on the sensitivity and specificity of the assay. Additionally, the observed incidence of antibody (including neutralizing antibody) positivity in an assay may be influenced by several factors including assay methodology, sample handling, timing of sample collection, concomitant medications, and underlying disease. For these reasons, comparison of the incidence of antibodies to daratumumab in the studies described below with the incidence of antibodies in other studies or to other products may be misleading. […] One patient administered DARZALEX as combination therapy, developed transient neutralizing antibodies against daratumumab. However, this assay has limitations in detecting anti-daratumumab antibodies in the presence of high concentrations of daratumumab; therefore, the incidence of antibody development might not have been reliably determined.

[6] = tested on: patients with multiple myeloma
[7] = tested on: patients with newly diagnosed multiple myeloma eligible for ASCT; test: CASSIOPEIA, adverse reactions and laboratory abnormalities
NK cells = test: Pharmacodynamics, NK cells; type: in vivo, human; conditions: peripheral whole blood and bone marrow
Source text: NK cells express CD38 and are susceptible to daratumumab mediated cell lysis.

[8] = Solution pH and storage of diluted solution; type: physicochemical
Source text: Prepare the solution for infusion using aseptic technique as follows: • Calculate the dose (mg), total volume (mL) of DARZALEX solution required and the number of DARZALEX vials needed based on patient actual body weight. • Check that the DARZALEX solution is colorless to pale yellow. […] Infusion bags/containers must be made of either polyvinylchloride (PVC), polypropylene (PP), polyethylene (PE) or polyolefin blend (PP+PE). Dilute under appropriate aseptic conditions. Discard any unused portion left in the vial. • Gently invert the bag/container to mix the solution. […] The diluted solution may develop very small, translucent to white proteinaceous particles, as daratumumab is a protein. […] (59° F.−77° F.) and in room light. Diluted solution may be kept at room temperature for a maximum of 15 hours (including infusion time). • If not used immediately, the diluted solution can be stored prior to administration for up to 24 hours at refrigerated conditions 2° C.−8° C. (36° F.−46° F.) and protected from light.
DARZALEX is supplied as a colorless to pale yellow preservative-free solution for intravenous infusion in single-dose vials. The pH is 5.5.

[9] = Cardiac electrophysiology; conditions: non-clinical or clinical data
[10] = tested on: patients with relapsed or refractory multiple myeloma; test: SIRIUS open-label monotherapy trial, efficacy; type: in vivo, human
Source text: as §1
The median patient age was 63.5 years (range: 31 to 84 years), 49% were male and 79% were Caucasian. Patients had received a median of 5 prior lines of therapy. […] Prior therapies included bortezomib (99%), lenalidomide (99%), pomalidomide (63%) and carfilzomib (50%).

In the case of “DARZALEX: immunoglobulin G1 kappa (IgG1κ) human monoclonal antibody against CD38 antigen; HC SEQ ID NO: 9, LC SEQ ID NO: 10”, the “Indirect Antiglobulin Test (Indirect Coombs test) result” value [1] is reported as “positive”, the “persistence of positive indirect antiglobulin test after the last infusion” value [1] is reported as “up to 6 months” and the “CR, number of patients” value ([2]; 16 mg/kg, 42 patients) is reported as 1. For the same substance, the Overall response rate ([2]; 16 mg/kg, 42 patients) was 36%, the “VGPR, number of patients” value ([2]; 16 mg/kg, 42 patients) was 3 and the “median duration of response” value ([2]; in vivo) was “not estimable”. The “median time to response” value ([2]; in vivo) was 1 month, the “area under the concentration-time curve (AUC), dose dependence” value ([3]; 1 to 24 mg/kg monotherapy or 1 to 16 mg/kg combination therapy) was “increases more than proportionally” and the “drug-drug interactions between daratumumab and lenalidomide, pomalidomide, bortezomib and dexamethasone” value ([3]; clinical pharmacokinetic assessments) was “no clinically relevant drug-drug interactions”. For the same substance, the “terminal half-life compared with monotherapy” value ([3]; combination therapy) was “similar”, the volume of distribution ([3]; combination therapy) was 4.4 ± 1.5 L and the “trough serum concentration (Cmin), mean±SD” value ([3]; end of weekly dosing, monotherapy) was 573 ± 332 µg/mL. The “central volume of distribution and clearance with increasing body weight” value ([3]; human, in vivo) was “increased”, the “clearance with increasing dose and with multiple dosing” value ([3]; human, in vivo) was “decreased” and the “linear clearance, mean±SD” value ([3]; monotherapy) was 171.4 ± 95.3 mL/day. For the same substance, the “terminal half-life associated with linear clearance, mean±SD” value ([3]; monotherapy) was 18 ± 9 days, the volume of distribution ([3]; monotherapy) was 4.7 ± 1.3 L and the “differences in pharmacokinetics based on sex, age, mild and moderate hepatic impairment, or renal impairment” value ([3]; monotherapy or combination therapy) was “No clinically significant differences”. For the same substance, the “time to steady state” value ([3]; monotherapy, into the every 4-week dosing period (by the 21st infusion)) was “approximately 5 months”, the “Anemia, laboratory abnormality” value ([4]; Any Grade) was 45% and the Arthralgia ([4]; Any Grade) was 17%. The Back pain ([4]; Any Grade) was 23%, the Chills ([4]; Any Grade) was 10% and the Constipation ([4]; Any Grade) was 15%. The Cough ([4]; Any Grade) was 21%, the Decreased appetite ([4]; Any Grade) was 15% and the Diarrhea ([4]; Any Grade) was 16%. The Dyspnea ([4]; Any Grade) was 15%, the Fatigue ([4]; Any Grade) was 39% and the Headache ([4]; Any Grade) was 12%. For the same substance, the Hypertension ([4]; Any Grade) was 10%, the Infusion reaction ([4]; Any Grade) was 48% and the “Lymphopenia, laboratory abnormality” value ([4]; Any Grade) was 72%. The Musculoskeletal chest pain ([4]; Any Grade) was 12%, the Nasal congestion ([4]; Any Grade) was 17% and the Nasopharyngitis ([4]; Any Grade) was 15%. The Nausea ([4]; Any Grade) was 27%, the “Neutropenia, laboratory abnormality” value ([4]; Any Grade) was 60% and the Pain in extremity ([4]; Any Grade) was 15%. The Pneumonia ([4]; Any Grade) was 11%, the Pyrexia ([4]; Any Grade) was 21% and the “Thrombocytopenia, laboratory abnormality” value ([4]; Any Grade) was 48%. For the same substance, the “Upper respiratory tract infection” value ([4]; Any Grade) was 20%, the Vomiting ([4]; Any Grade) was 14% and the “Anemia, laboratory abnormality” value ([4]; Grade 3) was 19%. It also gave an Arthralgia ([4]; Grade 3) of 0%, a Back pain ([4]; Grade 3) of 2% and a Chills ([4]; Grade 3) of 0%. For the same substance, the Constipation ([4]; Grade 3) was 0%, the Cough ([4]; Grade 3) was 0% and the Decreased appetite ([4]; Grade 3) was 1%. It also gave a Diarrhea ([4]; Grade 3) of 1%, a Dyspnea ([4]; Grade 3) of 1% and a Fatigue ([4]; Grade 3) of 2%. For the same substance, the Headache ([4]; Grade 3) was 1%, the Hypertension ([4]; Grade 3) was 5% and the Infusion reaction ([4]; Grade 3) was 3%. For the same substance, the “Lymphopenia, laboratory abnormality” value ([4]; Grade 3) was 30%, the Musculoskeletal chest pain ([4]; Grade 3) was 1% and the Nasal congestion ([4]; Grade 3) was 0%. For the same substance, the Nasopharyngitis ([4]; Grade 3) was 0%, the Nausea ([4]; Grade 3) was 0% and the “Neutropenia, laboratory abnormality” value ([4]; Grade 3) was 17%. For the same substance, the Pain in extremity ([4]; Grade 3) was 1%, the Pneumonia ([4]; Grade 3) was 6% and the Pyrexia ([4]; Grade 3) was 1%. For the same substance, the “Thrombocytopenia, laboratory abnormality” value ([4]; Grade 3) was 10%, the “Upper respiratory tract infection” value ([4]; Grade 3) was 1% and the Vomiting ([4]; Grade 3) was 0%. For the same substance, the “Anemia, laboratory abnormality” value ([4]; Grade 4) was 0%, the Arthralgia ([4]; Grade 4) was 0% and the Back pain ([4]; Grade 4) was 0%. The Chills ([4]; Grade 4) was 0%, the Constipation ([4]; Grade 4) was 0% and the Cough ([4]; Grade 4) was 0%. It also gave a Decreased appetite ([4]; Grade 4) of 0%, a Diarrhea ([4]; Grade 4) of 0% and a Dyspnea ([4]; Grade 4) of 0%. It also gave a Fatigue ([4]; Grade 4) of 0%, a Headache ([4]; Grade 4) of 0% and a Hypertension ([4]; Grade 4) of 0%. The Infusion reaction ([4]; Grade 4) was 0%, the “Lymphopenia, laboratory abnormality” value ([4]; Grade 4) was 10% and the Musculoskeletal chest pain ([4]; Grade 4) was 0%. The Nasal congestion ([4]; Grade 4) was 0%, the Nasopharyngitis ([4]; Grade 4) was 0% and the Nausea ([4]; Grade 4) was 0%. The “Neutropenia, laboratory abnormality” value ([4]; Grade 4) was 3%, the Pain in extremity ([4]; Grade 4) was 0% and the Pneumonia ([4]; Grade 4) was 0%. For the same substance, the Pyrexia ([4]; Grade 4) was 0%, the “Thrombocytopenia, laboratory abnormality” value ([4]; Grade 4) was 8% and the “Upper respiratory tract infection” value ([4]; Grade 4) was 0%. For the same substance, the Vomiting ([4]; Grade 4) was 0%, the serious adverse reactions ([4]; monotherapy 16 mg/kg, 156 patients) was 33% and the “patients tested positive for anti-daratumumab antibodies” value ([5]; 111 evaluable monotherapy patients) was “none”. The “patients tested positive for anti-daratumumab antibodies” value ([5]; of the 1,050 evaluable combination therapy patients) was 2, the “incidence of any grade infusion reactions” value ([6]; Week 2 infusion) was 2% and the “Grade 3/4 infusion reaction” value ([6]; Week 2 or subsequent infusions) was “Less than 1%”. For the same substance, the “incidence of any grade infusion reactions” value ([6]; cumulatively, subsequent infusions) was 6%, the “incidence of any grade infusion reactions” value ([6]; first (16 mg/kg, Week 1) infusion) was 37% and the “incidence of infusion modification due to reactions” value ([6]; human, in vivo) was 36%. For the same substance, the “Hepatitis B virus reactivation” value ([6]; including fatal cases) was “less than 1%”, the “time of infusion reactions after completing DARZALEX” value ([6]; nearly all reactions, during infusion or within) was ≤ 4 h and the “time of infusion reactions after infusion” value ([6]; prior to the introduction of post-infusion medication) was “up to 48 hours”. For the same substance, the “patients who experienced an infusion reaction” value ([6]; share of all patients in clinical trials) was “approximately half”, the “IRRs Grade 3 or 4” value ([7]; at re-initiation following ASCT) was < 1% and the “incidence of IRRs” value ([7]; first infusion following ASCT, upon re-initiation) was 11%. For the same substance, the “absolute counts and percentages of total NK cells and activated NK cells” value (NK cells) was “Decreases”, the “time diluted solution can be stored prior to administration” value ([8]; refrigerated 2° C.−8° C., protected from light) was “up to 24 hours” and the “time diluted solution may be kept” value ([8]; room temperature, including infusion time) was ≤ 15 h. The pH ([8]; solution for intravenous infusion) was 5.5, the “potential to delay ventricular repolarization” value [9] was “no evidence” and the “Overall response rate (ORR)” value ([10]; N = 106) was 29.2%. The “Partial response (PR)” value ([10]; in vivo) was 17.0%, the “Stringent complete response (sCR)” value ([10]; in vivo) was 2.8% and the “Very good partial response (VGPR)” value ([10]; in vivo) was 9.4%. The “median duration of response” value ([10]; in vivo) was 7.4 months, the “median time to response” value ([10]; in vivo) was 1 month and the “Complete response (CR)” value ([10]; number of patients) was 0. The “Overall response rate (ORR)” value ([10]; number of patients) was 31, the “Partial response (PR)” value ([10]; number of patients) was 18 and the “Stringent complete response (sCR)” value ([10]; number of patients) was 3. The “Very good partial response (VGPR)” value ([10]; number of patients) was 10.
